Source: PMC11927444 (Journal for Immunotherapy of Cancer, 2025)

T1: Recombinant Syndecan-1 (2780-SD) (human, UniProt P18827 23-254)
T1 sequence (looked up): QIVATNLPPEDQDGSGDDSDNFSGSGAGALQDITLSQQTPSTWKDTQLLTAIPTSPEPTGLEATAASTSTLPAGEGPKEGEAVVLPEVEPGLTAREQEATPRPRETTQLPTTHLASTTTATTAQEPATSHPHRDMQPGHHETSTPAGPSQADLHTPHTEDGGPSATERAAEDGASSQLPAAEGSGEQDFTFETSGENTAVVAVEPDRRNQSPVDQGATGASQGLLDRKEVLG

B1: Recombinant human TREM2 (9256-T2-50) (receptor, UniProt Q9NZC2 19-174, looked up)
chain: HNTTVFQGVAGQSLQVSCPYDSMKHWGRRKAWCRQLGEKGPCQRVVSTHNLWLLSFLRRWNGSTAITDDTLGGTLTITLRNLQPHDAGLYQCQSLHGSEADTLRKVLVEVLADPLDHRDAGDLWFPGESESFEDAHVEHSISRSLLEGEIPFPPTS
B2: Biotinylated IL-34 (ligand, human, UniProt Q6ZMJ4 19-242, looked up)
chain: LGNEPLEMWPLTQNEECTVTGFLRDKLQYRSRLQYMKHYFPINYKISVPYEGVFRIANVTRLQRAQVSERELRYLWVLVSLSATESVQDVLLEGHPSWKYLQEVETLLLNVQQGLTDVEVSPKVESVLSLLNAPGPNLKLVRPKALLDNCFRVMELLYCSCCKQSSVLNWQDCEVPSPQSCSPEPSLQYAATQLYPPPPWSPSSPPHSTGSVRPVRAQGEGLLP
modifications: biotin (biotinylated, site not stated)

Assays:
Test in all cases: ELISA
Biotinylated IL-34 = target: B2
[1] = target: T1, Recombinant Syndecan-1 (2780-SD)
[2] = target: Recombinant human CSF-1R-Fc (329-MR-100) (human, UniProt P07333 20-517)
Recombinant human CSF-1R-Fc (329-MR-100), sequence (P07333 20-517): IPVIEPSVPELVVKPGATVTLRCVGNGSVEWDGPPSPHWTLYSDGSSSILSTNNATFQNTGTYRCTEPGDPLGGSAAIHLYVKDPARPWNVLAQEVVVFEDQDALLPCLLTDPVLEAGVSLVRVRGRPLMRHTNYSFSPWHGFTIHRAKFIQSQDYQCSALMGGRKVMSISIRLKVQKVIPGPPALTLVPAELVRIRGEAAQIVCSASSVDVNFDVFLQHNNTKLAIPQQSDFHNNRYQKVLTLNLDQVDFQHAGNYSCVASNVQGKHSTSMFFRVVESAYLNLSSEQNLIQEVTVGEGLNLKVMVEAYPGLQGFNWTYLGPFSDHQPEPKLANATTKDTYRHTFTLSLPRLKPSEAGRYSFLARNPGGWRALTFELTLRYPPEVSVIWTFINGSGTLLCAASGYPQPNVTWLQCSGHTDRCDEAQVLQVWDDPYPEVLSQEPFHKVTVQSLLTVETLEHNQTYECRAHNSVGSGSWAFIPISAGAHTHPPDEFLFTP

**Q.** Does B1 bind (Biotinylated IL-34)?
**A.** binds

**Q.** Which results are given for B2?
**A.** binding result [1]: binds; binding result [2]: binds
